Data on three compounds can be found in paper PMC11514452, “Stochastic nature and physiological implications of 5′-NAD RNA cap in bacteria” (Nucleic Acids Research, 2024).

The target in one data set is T1, NudC (Escherichia coli, UniProt P32664).
T1 construct: homodimer by known biology
T1 sequence (P32664 1-257): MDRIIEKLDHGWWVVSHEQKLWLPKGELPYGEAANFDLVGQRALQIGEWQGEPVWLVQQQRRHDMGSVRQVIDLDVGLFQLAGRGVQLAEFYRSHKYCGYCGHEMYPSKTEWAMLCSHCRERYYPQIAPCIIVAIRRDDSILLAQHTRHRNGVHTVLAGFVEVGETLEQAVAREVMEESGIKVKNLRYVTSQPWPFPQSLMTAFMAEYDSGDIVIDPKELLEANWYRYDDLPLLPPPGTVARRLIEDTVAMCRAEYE
Put plainly: NAD-RNA de-capping in vitro, gel read-out, ppGpp titration. Format: biochemical. Conditions: read-out: inhibition constant.

Data set [1] relates to 70S ribosome. Kind of data set: BLI. Conditions: tRNAfMet (2-fold molar excess), 10 mM Tris-HCl pH 7.4, 60 mM NH4Cl, RelE assay also 6 mM beta-mercaptoethanol, 37 C 10 min, BLI temperature not stated.
Data set [2] has as its system 70S ribosome. Put plainly: footprinting (RelE printing, ribosome titration). Conditions: tRNAfMet, RelE toxin, 10 mM Tris-HCl pH 7.4, 60 mM NH4Cl, RelE assay also 6 mM beta-mercaptoethanol, 37 C 10 min, BLI temperature not stated.
Where [3] appears, read: 10 mM Mg(OAc)2, 5'-triphosphate.
The mark [4] stands for this setting: 10 mM Mg(OAc)2, 5'-NAD (first A replaced by NAD, start codon NAD-UG).

As for `Nc1nc2c(ncn2[C@@H]2O[C@H](COP(=O)(O)OP(=O)(O)O)[C@@H](OP(=O)(O)OP(=O)(O)O)[C@H]2O)c(=O)[nH]1` [ppGpp], the Ki at NudC is approximately 70 µM.

The term Kd denotes a measure of binding affinity in units of concentration. On to “AUGAGCACAAAAAAGAAACCAUUAACACAAGAGCAGCUUGAGGACGCACGUCGCCUUAAAGCAAUUUAUG [ppp-cI(1-70) leaderless mRNA]”, for which, in the data set on 70S ribosome [1] (setting [3]), the Kd was found to be 3.5 nM. Moreover, the K half in the data set on 70S ribosome [2] (setting [3]) is 3.8 nM.

In the data set with 70S ribosome [1] (setting [4]), “AUGAGCACAAAAAAGAAACCAUUAACACAAGAGCAGCUUGAGGACGCACGUCGCCUUAAAGCAAUUUAUG [NAD-cI(1-70) leaderless mRNA]” had a Kd of 4.3 nM. The K half with 70S ribosome [2] (setting [4]) stood at 4.3 nM.
